Measured values reported in US20140341939A1 (NATIONAL UNIVERSITY CORPORATION KOCHI UNIVERSITY, priority 2011, published 2014).
Where no end group is shown, it is not given here. [ ]: non-standard residue; d: D form. The star is where a group is joined. Biotin = O=C1N[C@H]2[C@H](CS[C@H]2CCCCC(=O)*)N1; βAla = NCCC(=O)O

Assays:
[1] = target: T1, HLA-DR molecule (Homo sapiens, UniProt P01903+P01911, A100R/A169T/D86S/F76Y/I96L/K127E/L162R/M171V/N62H/P40V/Q125Y/R42H/S133A/S149N/S66Y/V115G/V209L/W38E); assay: Binding of biotinylated W332 peptide to CH1-DR4 cell; settings: cultured 5 hr, FITC-streptavidin, flow cytometry (FIG. 29A)
T1 construct: expressed in transfected cells; host or cells: CH1-DR4 (CH1-DRB1*04:05) cells

[2] = target: T2, HLA-DR4 molecule (Homo sapiens, UniProt P01903+P01911, A100R/A169T/D86S/F76Y/I96L/K127E/L162R/M171V/N62H/P40V/Q125Y/R42H/S133A/S149N/S66Y/V115G/V209L/W38E); assay: Peptide binding to HLA-DR4 molecule on CH1-DR4 cells with p-chlorophenol; settings: PCP added, 37° C. 4 hr, FITC-streptavidin (FIG. 31)
T2 construct: expressed in transfected cells; host or cells: CH1-DRB1*04:05 (CH1-DR4) cells
Method: CH1-DRB1*04:05 cells (CH1-DR4 cells) were suspended in 20% FCS IMDM ([…]) at 2×10^6/ml, so that 50 μl could provide 1×10^5 cells/well in a 96 well U plate. Then, 20 μM bTR174 (PSK^bio[…]^bioPβA: SEQ ID NO: 41) (biotinylation index peptide) was added at 100 μl per well, and IMDM containing 8 mM PCP was further added at 50 μl per well, and finally, CH1-DR4 cells were added at 50 μl (1×10^5/well) and the mixture was incubated at 37° C. for 4 hr. Free peptide was removed by centrifugation, the cells were stained with FITC-streptavidin, and measured by flow cytometer. […] By adding a competitive peptide, which is generated by adding a peptidase resistant sequence to the terminal of an unlabeled peptide, to this experiment system, the binding activity of the unlabeled peptide can be quantitatively measured.

[3] = system: Th cell; assay: In vivo immunization using modified molecule of WA36 (IFN-γ positive Th cells); parameters: species or system mouse; settings: IFN-γ positive Th cells (FIG. 27)

With “PSK^bioKRYFKLSHLQMHSRKHK^bioPβA (PSK(Biotin)KRYFKLSHLQMHSRKHK(Biotin)P[βAla]) [PbW332bPβ]” the “binding to cell that expresses HLA-DR molecule” value [1] was “bind to CH1-DR4 cell”.
For “PSK^bioREFKLSKVWRDQK^bioPβA (PSK(Biotin)REFKLSKVWRDQK(Biotin)P[βAla]) [bTR174, biotinylation index peptide]”, the “binding of biotin-labeled peptide to HLA-DR4 molecule” value [2] was “replaced a peptide endogenously bound to an HLA-DR4 molecule, in a PCP concentration dependent manner”.
“PVLDFAPPGASAYGS [WA36, WT1 antigen-derived polypeptide]” was tested, and the “induction of Th cell to the tumor antigen in in vivo immunization” value [3] was “induction of Th cell was extremely difficult”.
